This is an account of results in IntAct's records for PubMed 27462807.

To fix the notation:
B1: TP53-binding protein 1 (Homo sapiens), Q12888 (parent)
chain: MDPTGSQLDSDFSQQDTPCLIIEDSQPESQVLEDDSGSHFSMLSRHLPNLQTHKENPVLDVVSNPEQTAGEERGDGNSGFNEHLKENKVADPVDSSNLDTCGSISQVIEQLPQPNRTSSVLGMSVESAPAVEEEKGEELEQKEKEKEEDTSGNTTHSLGAEDTASSQLGFGVLELSQSQDVEENTVPYEVDKEQLQSVTTNSGYTRLSDVDANTAIKHEEQSNEDIPIAEQSSKDIPVTAQPSKDVHVVKEQNPPPARSEDMPFSPKASVAAMEAKEQLSAQELMESGLQIQKSPEPEVLSTQEDLFDQSNKTVSSDGCSTPSREEGGCSLASTPATTLHLLQLSGQRSLVQDSLSTNSSDLVAPSPDAFRSTPFIVPSSPTEQEGRQDKPMDTSVLSEEGGEPFQKKLQSGEPVELENPPLLPESTVSPQASTPISQSTPVFPPGSLPIPSQPQFSHDIFIPSPSLEEQSNDGKKDGDMHSSSLTVECSKTSEIEPKNSPEDLGLSLTGDSCKLMLSTSEYSQSPKMESLSSHRIDEDGENTQIEDTEPMSPVLNSKFVPAENDSILMNPAQDGEVQLSQNDDKTKGDDTDTRDDISILATGCKGREETVAEDVCIDLTCDSGSQAVPSPATRSEALSSVLDQEEAMEIKEHHPEEGSSGSEVEEIPETPCESQGEELKEENMESVPLHLSLTETQSQGLCLQKEMPKKECSEAMEVETSVISIDSPQKLAILDQELEHKEQEAWEEATSEDSSVVIVDVKEPSPRVDVSCEPLEGVEKCSDSQSWEDIAPEIEPCAENRLDTKEEKSVEYEGDLKSGTAETEPVEQDSSQPSLPLVRADDPLRLDQELQQPQTQEKTSNSLTEDSKMANAKQLSSDAEAQKLGKPSAHASQSFCESSSETPFHFTLPKEGDIIPPLTGATPPLIGHLKLEPKRHSTPIGISNYPESTIATSDVMSESMVETHDPILGSGKGDSGAAPDVDDKLCLRMKLVSPETEASEESLQFNLEKPATGERKNGSTAVAESVASPQKTMSVLSCICEARQENEARSEDPPTTPIRGNLLHFPSSQGEEEKEKLEGDHTIRQSQQPMKPISPVKDPVSPASQKMVIQGPSSPQGEAMVTDVLEDQKEGRSTNKENPSKALIERPSQNNIGIQTMECSLRVPETVSAATQTIKNVCEQGTSTVDQNFGKQDATVQTERGSGEKPVSAPGDDTESLHSQGEEEFDMPQPPHGHVLHRHMRTIREVRTLVTRVITDVYYVDGTEVERKVTEETEEPIVECQECETEVSPSQTGGSSGDLGDISSFSSKASSLHRTSSGTSLSAMHSSGSSGKGAGPLRGKTSGTEPADFALPSSRGGPGKLSPRKGVSQTGTPVCEEDGDAGLGIRQGGKAPVTPRGRGRRGRPPSRTTGTRETAVPGPLGIEDISPNLSPDDKSFSRVVPRVPDSTRRTDVGAGALRRSDSPEIPFQAAAGPSDGLDASSPGNSFVGLRVVAKWSSNGYFYSGKITRDVGAGKYKLLFDDGYECDVLGKDILLCDPIPLDTEVTALSEDEYFSAGVVKGHRKESGELYYSIEKEGQRKWYKRMAVILSLEQGNRLREQYGLGPYEAVTPLTKAADISLDNLVEGKRKRRSNVSSPATPTASSSSSTTPTRKITESPRASMGVLSGKRKLITSEEERSPAKRGRKSATVKPGAVGAGEFVSPCESGDNTGEPSALEEQRGPLPLNKTLFLGYAFLLTMATTSDKLASRSKLPDGPTGSSEEEEEFLEIPPFNKQYTESQLRAGAGYILEDFNEAQCNTAYQCLLIADQHCRTRKYFLCLASGIPCVSHVWVHDSCHANQLQNYRNYLLPAGYSLEEQRILDWQPRENPFQNLKVLLVSDQQQNFLELWSEILMTGGAASVKQHHSSAHNKDIALGVFDVVVTDPSCPASVLKCAEALQLPVVSQEWVIQCLIVGERIGFKQHPKYKHDYVSH

One test covers variants of B1. Particulars: with H2BC10, P62807.
For K1628C, the “effect of a mutation on the interaction” value is on record as “decreasing interaction”.

The variants in the next test derive from B1. As to conditions: with H2BC10, P62807. This is another data set of the same source.
With T1609C, the “effect of a mutation on the interaction” value is reported as “with no effect”.
